Source: article PMC12099206

What was measured:
[1] = molecular target: CmFDL1 expressed in chrysanthemum protoplasts (Chrysanthemum morifolium)
[2] = molecular target: CmFTL3 expressed in chrysanthemum protoplasts (Chrysanthemum morifolium)

- decrease in Luc activity of CmCDM111Lpro:Luc in chrysanthemum protoplasts (dual-luciferase), CmTCP7, CmFTL3 and CmFDL1 co-transfected against CmFTL3 and CmFDL1 [1]: 80%
- decrease in Luc activity of CmCDM111Lpro:Luc in chrysanthemum protoplasts (dual-luciferase), CmTCP7, CmFTL3 and CmFDL1 co-transfected against CmFTL3 and CmFDL1 [2]: 80%
Substance: CmTCP7 expressed in chrysanthemum protoplasts (natural protein)
